The test system of the data set is Escherichia coli TOP10. Nature of the data set: shrunken log2 fold change of peptide-encoding DNA abundance (4.5 h post-induction vs induction); higher = less antimicrobial activity (less host growth inhibition). The settings on record: time post-induction: 4.5 h; library: site-saturation at positions 5, 18, 19, 20.
With RRIRTRPPRLPRPRPRPEAQPRP, the “shrunken log2 fold change” value turned out to be 0.00719.

RRIRQRPPRLPRPRPRPFVCPRP: the “shrunken log2 fold change” value is -0.0472.

With RRIRERPPRLPRPRPRPWNCPRP, the “shrunken log2 fold change” value was -0.327.

For RRIRGRPPRLPRPRPRPMKEPRP, the “shrunken log2 fold change” value amounted to 0.31.

As to RRIRWRPPRLPRPRPRPMSYPRP, the “shrunken log2 fold change” value is -0.206.

Consider RRIRARPPRLPRPRPRPSGNPRP, for which the “shrunken log2 fold change” value came to 0.0499.

RRIRPRPPRLPRPRPRPVYAPRP: the “shrunken log2 fold change” value was -0.261.

Turning to RRIRQRPPRLPRPRPRPITRPRP, the “shrunken log2 fold change” value amounted to 0.0297.

Take RRIRYRPPRLPRPRPRPRCFPRP: the “shrunken log2 fold change” value was -0.152.

Consider RRIRERPPRLPRPRPRPDGSPRP, for which the “shrunken log2 fold change” value was determined as 0.0355.

For the sequence RRIRTRPPRLPRPRPRPFDPPRP, the “shrunken log2 fold change” value was -0.112.

As to RRIRFRPPRLPRPRPRPEERPRP, the “shrunken log2 fold change” value is 0.477.

On to RRIRDRPPRLPRPRPRPGNFPRP, for which the “shrunken log2 fold change” value is -0.0885.

With RRIRCRPPRLPRPRPRPQGNPRP, the “shrunken log2 fold change” value was -0.695.

Turning to RRIRCRPPRLPRPRPRPGEGPRP, the “shrunken log2 fold change” value was -0.0346.

In the case of RRIRNRPPRLPRPRPRPYSMPRP, the “shrunken log2 fold change” value was -0.292.

Consider RRIRLRPPRLPRPRPRPWSDPRP, for which the “shrunken log2 fold change” value is -0.188.

On to RRIRNRPPRLPRPRPRPKRVPRP, for which the “shrunken log2 fold change” value stood at 0.148.

Turning to RRIRIRPPRLPRPRPRPLKIPRP, the “shrunken log2 fold change” value amounted to 1.44.

Regarding RRIRRRPPRLPRPRPRPMQHPRP, the “shrunken log2 fold change” value was found to be 0.566.

RRIRIRPPRLPRPRPRPFREPRP: the “shrunken log2 fold change” value was -0.0279.

As to RRIRWRPPRLPRPRPRPHEDPRP, the “shrunken log2 fold change” value worked out at 0.185.

Turning to RRIRKRPPRLPRPRPRPAMRPRP, the “shrunken log2 fold change” value was 1.33.

Take RRIRHRPPRLPRPRPRPKFGPRP: the “shrunken log2 fold change” value was found to be 0.0962.

For the sequence RRIRMRPPRLPRPRPRPVGLPRP, the “shrunken log2 fold change” value came out at 0.383.

In the case of RRIRNRPPRLPRPRPRPTHRPRP, the “shrunken log2 fold change” value is 0.597.

Consider RRIRPRPPRLPRPRPRPIWSPRP, for which the “shrunken log2 fold change” value was 0.0653.

On to RRIRQRPPRLPRPRPRPYAYPRP, for which the “shrunken log2 fold change” value is -0.0214.

As to RRIRFRPPRLPRPRPRPAMMPRP, the “shrunken log2 fold change” value turned out to be 0.0488.

Regarding RRIRARPPRLPRPRPRPCEAPRP, the “shrunken log2 fold change” value came to 0.762.

Consider RRIRCRPPRLPRPRPRPKPFPRP, for which the “shrunken log2 fold change” value is -0.0386.

In the case of RRIRVRPPRLPRPRPRPFKLPRP, the “shrunken log2 fold change” value is -0.277.

For RRIRMRPPRLPRPRPRPMHGPRP, the “shrunken log2 fold change” value was -0.0683.

With RRIRLRPPRLPRPRPRPSTMPRP, the “shrunken log2 fold change” value is -0.407.

Turning to RRIRTRPPRLPRPRPRPRERPRP, the “shrunken log2 fold change” value is 0.112.

For RRIRARPPRLPRPRPRPPSTPRP, the “shrunken log2 fold change” value was determined as 0.563.

Regarding RRIRCRPPRLPRPRPRPQESPRP, the “shrunken log2 fold change” value turned out to be 0.192.

As for RRIRCRPPRLPRPRPRPYLNPRP, the “shrunken log2 fold change” value was -1.32.

Turning to RRIRTRPPRLPRPRPRPTEWPRP, the “shrunken log2 fold change” value came out at 0.0143.

For RRIRARPPRLPRPRPRPSRMPRP, the “shrunken log2 fold change” value was 0.362.

With RRIRGRPPRLPRPRPRPENNPRP, the “shrunken log2 fold change” value turned out to be 0.502.

As for RRIRWRPPRLPRPRPRPTPLPRP, the “shrunken log2 fold change” value is 0.557.

For RRIRVRPPRLPRPRPRPHSSPRP, the “shrunken log2 fold change” value is -0.531.

For the sequence RRIRIRPPRLPRPRPRPDHTPRP, the “shrunken log2 fold change” value was -0.25.

With RRIRIRPPRLPRPRPRPVVQPRP, the “shrunken log2 fold change” value was -1.04.

On to RRIRCRPPRLPRPRPRPHYNPRP, for which the “shrunken log2 fold change” value is -1.32.

On to RRIRWRPPRLPRPRPRPVPKPRP, for which the “shrunken log2 fold change” value came out at 0.524.

For the sequence RRIRMRPPRLPRPRPRPQSRPRP, the “shrunken log2 fold change” value stood at 0.328.

In the case of RRIRARPPRLPRPRPRPHGFPRP, the “shrunken log2 fold change” value is -0.00228.

Turning to RRIRMRPPRLPRPRPRPKRGPRP, the “shrunken log2 fold change” value was -0.0058.

For the sequence RRIRHRPPRLPRPRPRPVFSPRP, the “shrunken log2 fold change” value was 0.0833.

As for RRIRNRPPRLPRPRPRPNPMPRP, the “shrunken log2 fold change” value is -0.0603.

RRIRERPPRLPRPRPRPNTRPRP: the “shrunken log2 fold change” value is -0.0785.

With RRIRNRPPRLPRPRPRPQIMPRP, the “shrunken log2 fold change” value was -0.127.

For the sequence RRIRRRPPRLPRPRPRPLKQPRP, the “shrunken log2 fold change” value worked out at 0.223.

Take RRIRNRPPRLPRPRPRPNSPPRP: the “shrunken log2 fold change” value amounted to 0.0941.

RRIRKRPPRLPRPRPRPPDQPRP: the “shrunken log2 fold change” value is 0.802.

In the case of RRIRLRPPRLPRPRPRPMYTPRP, the “shrunken log2 fold change” value was -0.119.

In the case of RRIRDRPPRLPRPRPRPRTEPRP, the “shrunken log2 fold change” value was 0.0904.

In the case of RRIRHRPPRLPRPRPRPQAGPRP, the “shrunken log2 fold change” value is -0.0176.

Take RRIRDRPPRLPRPRPRPNQWPRP: the “shrunken log2 fold change” value amounted to 0.151.

In the case of RRIRSRPPRLPRPRPRPYRVPRP, the “shrunken log2 fold change” value was -0.0218.

As to RRIRRRPPRLPRPRPRPHAAPRP, the “shrunken log2 fold change” value amounted to 0.837.

RRIRIRPPRLPRPRPRPQYWPRP: the “shrunken log2 fold change” value is -0.361.

For RRIRGRPPRLPRPRPRPPTWPRP, the “shrunken log2 fold change” value worked out at 0.466.

For the sequence RRIRQRPPRLPRPRPRPAIVPRP, the “shrunken log2 fold change” value is -0.0943.

On to RRIRHRPPRLPRPRPRPTAMPRP, for which the “shrunken log2 fold change” value worked out at 0.148.

Turning to RRIRYRPPRLPRPRPRPAFTPRP, the “shrunken log2 fold change” value is -0.639.

For RRIRPRPPRLPRPRPRPALVPRP, the “shrunken log2 fold change” value worked out at 0.181.

On to RRIRTRPPRLPRPRPRPMAGPRP, for which the “shrunken log2 fold change” value was -0.109.

For the sequence RRIRARPPRLPRPRPRPSIEPRP, the “shrunken log2 fold change” value is 0.0128.

As for RRIRRRPPRLPRPRPRPYHCPRP, the “shrunken log2 fold change” value was -0.37.

Take RRIRIRPPRLPRPRPRPCGSPRP: the “shrunken log2 fold change” value is -0.0454.

On to RRIRVRPPRLPRPRPRPFWWPRP, for which the “shrunken log2 fold change” value is 0.343.

As for RRIRCRPPRLPRPRPRPLLVPRP, the “shrunken log2 fold change” value is -0.317.

Turning to RRIRLRPPRLPRPRPRPETSPRP, the “shrunken log2 fold change” value was -0.0221.

Turning to RRIRYRPPRLPRPRPRPHGEPRP, the “shrunken log2 fold change” value came to 0.0796.

Turning to RRIRDRPPRLPRPRPRPTGMPRP, the “shrunken log2 fold change” value was -0.00655.

As for RRIRERPPRLPRPRPRPSWDPRP, the “shrunken log2 fold change” value is -0.247.

For RRIRMRPPRLPRPRPRPIRQPRP, the “shrunken log2 fold change” value is -0.0521.

On to RRIRGRPPRLPRPRPRPDFLPRP, for which the “shrunken log2 fold change” value amounted to 0.318.

With RRIRMRPPRLPRPRPRPRMEPRP, the “shrunken log2 fold change” value is 0.0362.

With RRIRPRPPRLPRPRPRPSKMPRP, the “shrunken log2 fold change” value is -0.169.

With RRIRHRPPRLPRPRPRPKVYPRP, the “shrunken log2 fold change” value was found to be 0.0338.

As for RRIRQRPPRLPRPRPRPCVNPRP, the “shrunken log2 fold change” value worked out at 0.0293.

For RRIRFRPPRLPRPRPRPFIFPRP, the “shrunken log2 fold change” value is -0.544.

For the sequence RRIRPRPPRLPRPRPRPDASPRP, the “shrunken log2 fold change” value stood at 0.37.

For RRIRQRPPRLPRPRPRPLRIPRP, the “shrunken log2 fold change” value is 0.116.

With RRIRVRPPRLPRPRPRPLVCPRP, the “shrunken log2 fold change” value was -0.253.

As to RRIRWRPPRLPRPRPRPGFHPRP, the “shrunken log2 fold change” value is -0.0866.

RRIRWRPPRLPRPRPRPQMLPRP: the “shrunken log2 fold change” value came to 0.313.

Take RRIRRRPPRLPRPRPRPISDPRP: the “shrunken log2 fold change” value was 0.136.

For RRIRCRPPRLPRPRPRPWMWPRP, the “shrunken log2 fold change” value was -0.00829.

For the sequence RRIRFRPPRLPRPRPRPPPDPRP, the “shrunken log2 fold change” value was 1.3.

Turning to RRIRTRPPRLPRPRPRPTPWPRP, the “shrunken log2 fold change” value was 0.411.

In the case of RRIRKRPPRLPRPRPRPHRDPRP, the “shrunken log2 fold change” value was -0.136.

For RRIRERPPRLPRPRPRPCGQPRP, the “shrunken log2 fold change” value was -0.0982.

Turning to RRIRTRPPRLPRPRPRPWDLPRP, the “shrunken log2 fold change” value came to 0.12.

For the sequence RRIRGRPPRLPRPRPRPDERPRP, the “shrunken log2 fold change” value worked out at 0.104.

With RRIRCRPPRLPRPRPRPPMKPRP, the “shrunken log2 fold change” value came to 0.242.

For the sequence RRIRFRPPRLPRPRPRPSYKPRP, the “shrunken log2 fold change” value is -0.819.

Turning to RRIRERPPRLPRPRPRPWQLPRP, the “shrunken log2 fold change” value was -0.072.

As to RRIRFRPPRLPRPRPRPCHQPRP, the “shrunken log2 fold change” value was -0.188.

On to RRIRSRPPRLPRPRPRPKWMPRP, for which the “shrunken log2 fold change” value stood at 0.269.

With RRIRHRPPRLPRPRPRPDARPRP, the “shrunken log2 fold change” value was 0.133.

On to RRIRIRPPRLPRPRPRPCLFPRP, for which the “shrunken log2 fold change” value is -0.639.

RRIRHRPPRLPRPRPRPPEQPRP: the “shrunken log2 fold change” value is -0.000687.

As to RRIRMRPPRLPRPRPRPITNPRP, the “shrunken log2 fold change” value was -0.192.

RRIRARPPRLPRPRPRPTTTPRP: the “shrunken log2 fold change” value was 0.264.

As for RRIRGRPPRLPRPRPRPRWLPRP, the “shrunken log2 fold change” value is 0.527.

For the sequence RRIRKRPPRLPRPRPRPLVPPRP, the “shrunken log2 fold change” value turned out to be 0.516.

Take RRIRMRPPRLPRPRPRPAPVPRP: the “shrunken log2 fold change” value was 0.764.

As to RRIRLRPPRLPRPRPRPPACPRP, the “shrunken log2 fold change” value stood at 0.448.

As for RRIRERPPRLPRPRPRPNLCPRP, the “shrunken log2 fold change” value was -0.13.

Take RRIRYRPPRLPRPRPRPKFHPRP: the “shrunken log2 fold change” value is -1.15.

For RRIRIRPPRLPRPRPRPFNSPRP, the “shrunken log2 fold change” value was -0.384.

For RRIRGRPPRLPRPRPRPLFNPRP, the “shrunken log2 fold change” value worked out at 0.117.

RRIRFRPPRLPRPRPRPAKEPRP: the “shrunken log2 fold change” value was 0.0148.

As to RRIRKRPPRLPRPRPRPSWVPRP, the “shrunken log2 fold change” value was -0.0457.

In the case of RRIRIRPPRLPRPRPRPWHWPRP, the “shrunken log2 fold change” value is -0.0771.

RRIRHRPPRLPRPRPRPIGLPRP: the “shrunken log2 fold change” value turned out to be 0.0101.

With RRIRQRPPRLPRPRPRPCLEPRP, the “shrunken log2 fold change” value amounted to 0.0782.

Consider RRIRKRPPRLPRPRPRPLEEPRP, for which the “shrunken log2 fold change” value is 1.76.

On to RRIRCRPPRLPRPRPRPYWCPRP, for which the “shrunken log2 fold change” value is -0.201.

For the sequence RRIRGRPPRLPRPRPRPWQCPRP, the “shrunken log2 fold change” value is 0.0158.

These data come from the supplement of paper PMC9112550, “Optimization of the antimicrobial peptide Bac7 by deep mutational scanning” (BMC Biology, 2022).
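Further: peptides expressed intracellularly from a pBAD plasmid library in pooled LB shake-flask culture, induced with 0.3% L-arabinose, DNA abundance read by NGS, three biological replicates, DESeq2 with apeglm shrinkage.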
